Data from patent publication US20250206797A1.
Numbering of substitutions follows the chain as printed. One block for each binder: values may come before it.

Target: Type B human insulin receptor (hIR-B) (human), P06213
Experiment: cell-based or functional assay

Activity of human insulin receptor subtype B (EC50), autophosphorylation in CHO-K1-hIRB cells (HTRF phospho-Y1150/1151): 328 nM
B1: fusion protein 6 (insulin analog 5 + L2 + IgG2 Fc1) (Fc fusion)
chain: FVNQHLCGEHLVEALYLVCGERGFHYGGGGGSGGGGGIVEQCCESICSLEQLENYCGGGGGQGGGGQGGGGQGGGGGECPPCPAPPVAGPSVFLFPPKPKDTLMISRTPEVTCVVVDVSHEDPEVQFNWYVDGVEVHNAKTKPREEQFNSTFRVVSVLTVVHQDWLNGKEYKCKVSNKGLPAPIEKTISKTKGQPREPQVYTLPPSREEMTKNQVSLTCLVKGFYPSDIAVEWESNGQPENNYKTTPPMLDSDGSFFLYSKLTVDKSRWQQGNVFSCSVMHEALHNHYTQKSLSLSPG

Activity of human insulin receptor subtype B (EC50), autophosphorylation in CHO-K1-hIRB cells (HTRF phospho-Y1150/1151): 182 nM
B2: fusion protein 5 (insulin analog 1 + L2 + IgG2 Fc1) (Fc fusion)
chain: FVNQHLCGEHLVEALYLVCGERGFHYGGGGGGSGGGGGIVEQCCESICSLEQLENYCGGGGGQGGGGQGGGGQGGGGQGGGGQECPPCPAPPVAGPSVFLFPPKPKDTLMISRTPEVTCVVVDVSHEDPEVQFNWYVDGVEVHNAKTKPREEQFNSTFRVVSVLTVVHQDWLNGKEYKCKVSNKGLPAPIEKTISKTKGQPREPQVYTLPPSREEMTKNQVSLTCLVKGFYPSDIAVEWESNGQPENNYKTTPPMLDSDGSFFLYSKLTVDKSRWQQGNVFSCSVMHEALHNHYTQKSLSLSPG

Activity of human insulin receptor subtype B (EC50), autophosphorylation in CHO-K1-hIRB cells (HTRF phospho-Y1150/1151): 275 nM
B3: fusion protein 7 (insulin analog 1 + L2 + IgG2 Fc1) (Fc fusion)
chain: FVNQHLCGEHLVEALYLVCGERGFHYGGGGGGSGGGGGIVEQCCESICSLEQLENYCGPGPQPGPQPGPQPGPQPGPQPGPQPGPQPGPQECPPCPAPPVAGPSVFLFPPKPKDTLMISRTPEVTCVVVDVSHEDPEVQFNWYVDGVEVHNAKTKPREEQFNSTFRVVSVLTVVHQDWLNGKEYKCKVSNKGLPAPIEKTISKTKGQPREPQVYTLPPSREEMTKNQVSLTCLVKGFYPSDIAVEWESNGQPENNYKTTPPMLDSDGSFFLYSKLTVDKSRWQQGNVFSCSVMHEALHNHYTQKSLSLSPG

Activity of human insulin receptor subtype B (EC50), autophosphorylation in CHO-K1-hIRB cells (HTRF phospho-Y1150/1151): 326 nM
B4: fusion protein 8 (insulin analog 1 + L2 + IgG2 Fc1) (Fc fusion)
chain: FVNQHLCGEHLVEALYLVCGERGFHYGGGGGGSGGGGGIVEQCCESICSLEQLENYCGGGGGAGGGGAGGGGAGGGGGECPPCPAPPVAGPSVFLFPPKPKDTLMISRTPEVTCVVVDVSHEDPEVQFNWYVDGVEVHNAKTKPREEQFNSTFRVVSVLTVVHQDWLNGKEYKCKVSNKGLPAPIEKTISKTKGQPREPQVYTLPPSREEMTKNQVSLTCLVKGFYPSDIAVEWESNGQPENNYKTTPPMLDSDGSFFLYSKLTVDKSRWQQGNVFSCSVMHEALHNHYTQKSLSLSPG

Activity of human insulin receptor subtype B (EC50), autophosphorylation in CHO-K1-hIRB cells (HTRF phospho-Y1150/1151): 4.57 nM
B5: fusion protein 3 (insulin analog 3 + L2 + IgG2 Fc1) (Fc fusion)
chain: B4 chain with E9S, Y16H, E45T, G58N, A63Q, A68Q, A73Q

Activity of human insulin receptor subtype B (EC50), autophosphorylation in CHO-K1-hIRB cells (HTRF phospho-Y1150/1151): 288 nM
B6: fusion protein 4 (insulin analog 4 + L2 + IgG2 Fc1) (Fc fusion)
chain: B4 chain with N3K, A63Q, A68Q, A73Q

Activity of human insulin receptor subtype B (EC50), autophosphorylation in CHO-K1-hIRB cells (HTRF phospho-Y1150/1151): 2.68 nM
B7: fusion protein 2 (insulin analog 2 + L2 + IgG2 Fc1) (Fc fusion)
chain: B4 chain with E9S, E45H, A63Q, A68Q, A73Q

Activity of human insulin receptor subtype B (EC50), autophosphorylation in CHO-K1-hIRB cells (HTRF phospho-Y1150/1151): 116 nM
B8: LY3209590 (Fc fusion)
chain: B4 chain with E9S, Y16E, E45T, I47T, E51D, A63Q, A68Q, A73Q

Activity of human insulin receptor subtype B (EC50), autophosphorylation in CHO-K1-hIRB cells (HTRF phospho-Y1150/1151): 422 nM
B9: fusion protein 1 (insulin analog 1 + L2 + IgG2 Fc1) (Fc fusion)
chain: B4 chain with A63Q, A68Q, A73Q

Activity of human insulin receptor subtype B (EC50), autophosphorylation in CHO-K1-hIRB cells (HTRF phospho-Y1150/1151): 120 nM
B10: fusion protein 9 (insulin analog 6 + L2 + IgG2 Fc1) (Fc fusion)
chain: B4 chain with G58N, G59H, A63Q, A68Q, A73Q
